Target: Ferritin-H (ferritin heavy chain) (Homo sapiens) (UniProt P02794)
Assay: cell_activity
Conditions: CV-1 cells, EKLF-stimulated beta-CAT reporter

Ferritin-H (ferritin heavy chain) (Homo sapiens), sequence (P02794 2-183): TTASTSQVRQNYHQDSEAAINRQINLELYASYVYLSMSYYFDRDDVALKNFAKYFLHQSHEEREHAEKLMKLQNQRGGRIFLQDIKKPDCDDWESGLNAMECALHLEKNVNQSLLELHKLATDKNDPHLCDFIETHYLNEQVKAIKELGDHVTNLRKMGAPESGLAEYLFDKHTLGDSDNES

Which activity does the source give for beta-globin 5' region -610/+20 (630 bp) here?
Its activity is 62 % repression.

— patent publication US20040186048
